Consider 1 molecule from patent US20220185910A1 (EUREKA THERAPEUTICS, published 2022).

This test addresses T1, human prostate specific membrane antigen (PSMA) (human, UniProt Q04609 1-750).
T1 construct: PSMA was on the cell surface: LNCaP and 22Rv1 (endogenous), PC3-PSMA and Jurkat-PSMA (lentiviral transduction); also called hPSMA
The experiment in a line: flow cytometry of phage scFv clones after cell panning on Jurkat-PSMA (parental Jurkat as negative selection). An excerpt:
A collection of human scFv antibody phage display libraries (diversity=10×10¹⁰) constructed by Eureka Therapeutics (i.e., the E-ALPHA® phage display library) was used for the selection of human mAbs specific to PSMA. Specifically, the E-ALPHA® phage display library was used to pan against a Jurkat cell line that has been engineered to express PSMA. The parental Jurkat cell line was used for negative selection. […] The VL in each scFv is underlined, the VH in each scFv is double underlined, and the linker is in bold italic type. The CDRs are in underlined bold type and double underlined bold type.

T1 sequence (Q04609 whole entry): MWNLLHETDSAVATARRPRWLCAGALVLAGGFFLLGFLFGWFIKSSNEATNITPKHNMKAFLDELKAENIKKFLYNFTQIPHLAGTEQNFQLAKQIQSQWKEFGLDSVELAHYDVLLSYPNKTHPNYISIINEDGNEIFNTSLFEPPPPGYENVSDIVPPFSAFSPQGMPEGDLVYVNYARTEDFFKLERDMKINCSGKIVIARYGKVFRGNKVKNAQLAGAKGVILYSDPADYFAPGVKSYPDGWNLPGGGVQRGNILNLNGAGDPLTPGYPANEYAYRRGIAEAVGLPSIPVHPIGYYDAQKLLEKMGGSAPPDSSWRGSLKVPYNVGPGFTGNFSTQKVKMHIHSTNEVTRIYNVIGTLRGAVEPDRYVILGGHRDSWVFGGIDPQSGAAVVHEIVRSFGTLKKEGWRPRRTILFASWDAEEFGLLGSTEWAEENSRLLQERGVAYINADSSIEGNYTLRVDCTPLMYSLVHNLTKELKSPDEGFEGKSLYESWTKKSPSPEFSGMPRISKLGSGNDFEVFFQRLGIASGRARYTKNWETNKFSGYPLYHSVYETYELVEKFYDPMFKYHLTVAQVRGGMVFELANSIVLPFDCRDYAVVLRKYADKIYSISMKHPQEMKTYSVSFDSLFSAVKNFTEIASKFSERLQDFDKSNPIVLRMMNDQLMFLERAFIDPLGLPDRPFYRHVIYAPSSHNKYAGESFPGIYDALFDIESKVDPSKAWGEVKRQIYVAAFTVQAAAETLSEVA

B1: Clone A anti-PSMA scFv (scFv)
scFv: QSVLTQPPSVSGAPGQRVTISCTGSSSNIGAGYDVHWYQQLPGTAPKLLIYGNSNRPSGVPDRFSGSKSGTSASLAITGLQAEDEADYYCQSYDSSLSGYVFGTGTKVTVLGSRGGGGSGGGGSGGGGSLEMAEVQLVQSGAEVKKPGESLKISCKGSGYSFTSYWIGWVRQMPGKGLEWMGIIYPGDSDTRYSPSFQGQVTISADKSISTAYLQWSSLKASDTAMYYCARSMGSSLYASSDVWGQGTLVTVSS
notes: Human scFv (VL-linker-VH) isolated from the E-ALPHA phage display library; the phage coat fusion is not described; also called phage clone A
Turning to B1, the binding result is “binds”.
